Publication PMC10694607

Legend:
Experiment in all cases: BLI
[1] = target: TRIM21–MC1 fusion protein (human) (UniProt P19474)
[2] = target: TRIM21–ME2 fusion protein (human) (UniProt P19474)
[3] = target: TRIM21–MH4 fusion protein (human) (UniProt P19474)

Kd [1]: 475 nM
Kd [2]: 753 nM
Kd [3]: 148 nM
Substance: recombinant MALT1 (BPS Bioscience), analyte in BLI (from UniProt Q9UDY8 1-824) (natural protein)
